This passage reports Kd results from publication PMC11040377.

The target of the assay is Lag3 (lymphocyte-activation gene 3), on transfected SH-SY5Y cells (not stated (human or mouse cDNA cloned)) (UniProt Q61790). The assay can be described thus: cell surface binding assay (streptavidin-alkaline phosphatase staining); SH-SY5Y cells transfected with Lag3 or its deletion mutants; biotin-labelled ligand at different concentrations (monomer equivalent) in DMEM with 10% FBS, 2 h at RT; washed, fixed, bound biotin detected with streptavidin-AP and BCIP/NBT; intensity by ImageJ, KD by GraphPad Prism.
Sequence of Lag3 (lymphocyte-activation gene 3), on transfected SH-SY5Y cells (not stated (human or mouse cDNA cloned)) (Q61790 24-521): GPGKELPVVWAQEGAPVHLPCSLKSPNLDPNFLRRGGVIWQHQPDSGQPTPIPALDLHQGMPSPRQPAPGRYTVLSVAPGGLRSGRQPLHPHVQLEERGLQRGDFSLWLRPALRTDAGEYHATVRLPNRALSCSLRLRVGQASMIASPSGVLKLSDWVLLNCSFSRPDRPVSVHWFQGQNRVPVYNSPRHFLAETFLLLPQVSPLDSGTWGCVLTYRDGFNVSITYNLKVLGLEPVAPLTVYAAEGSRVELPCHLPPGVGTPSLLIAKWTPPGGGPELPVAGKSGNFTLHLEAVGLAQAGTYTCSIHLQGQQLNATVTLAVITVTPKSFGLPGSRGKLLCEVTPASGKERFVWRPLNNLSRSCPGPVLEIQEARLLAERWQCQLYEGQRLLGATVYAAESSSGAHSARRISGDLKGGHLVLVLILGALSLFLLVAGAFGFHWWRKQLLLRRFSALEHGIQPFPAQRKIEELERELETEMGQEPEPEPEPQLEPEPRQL

As to “Tau PFF derived from PSP (progressive supranuclear palsy) seeds”, the Kd came out at 227 nM.
